According to US20220402995A1 (TOSOH, published 2022):
Numbering of substitutions follows the chain as printed.

B1: AAV-binding protein No. 122 (AVR8g + Gln386Arg) (receptor)
chain: MGSAGESDQITLPKNEVQLNAYVLQEPPKGETCTYDWQLITHPRDYSGEMEGEHSQILKLSNLTPGLYEFKVIVEGRNAHSEGYVNVTVEPEPRKNRPPIAIVSPQFQEISLPTTSTVIDGSQSTDDDKIVQYHWEELKGPLREEKISEDTAILKLSKLVPGNYTFRLTVVDSDGATDSTTANLTVNKAVDHHHHHH
B2: AAV-binding protein No. 123 (AVR8g + Tyr393Cys) (receptor)
chain: B1 chain with R77Q, Y84C
B3: AAV-binding protein No. 124 (AVR8g + Gln441Arg) (receptor)
chain: B1 chain with R77Q, Q132R
B4: AAV-binding protein No. 125 (AVR8g + His443Leu) (receptor)
chain: B1 chain with R77Q, H134L
B5: AAV-binding protein No. 126 (AVR8g + Lys448Glu) (receptor)
chain: B1 chain with R77Q, K139E
B6: AAV-binding protein No. 127 (AVR8g + Asp483Asn) (receptor)
chain: B1 chain with R77Q, D174N
B7: AAV-binding protein No. 128 (AVR8g + Ser312Pro, Pro374Leu) (receptor)
chain: B1 chain with S3P, P65L, R77Q
B8: AAV-binding protein No. 129 (AVR8g + Ala313Ser, Glu378Gly) (receptor)
chain: B1 chain with A4S, E69G, R77Q
B9: AAV-binding protein No. 130 (AVR8g + Lys323Arg, Glu384Val) (receptor)
chain: B1 chain with K14R, E75V, R77Q
B10: AAV-binding protein No. 131 (AVR8g + Asn324Ser, Gly357Cys) (receptor)
chain: B1 chain with N15S, G48C, R77Q
B11: AAV-binding protein No. 132 (AVR8g + Gln327His, Glu378Val) (receptor)
chain: B1 chain with Q18H, E69V, R77Q
B12: AAV-binding protein No. 133 (AVR8g + Gln327Leu, Lys(Asn)371Asp) (receptor)
chain: B1 chain with Q18L, N62D, R77Q
notes: Asn371 of AVR8g replaced by Asp
B13: AAV-binding protein No. 134 (AVR8g + Asn329Ile, Val499Ile) (receptor)
chain: B1 chain with N20I, R77Q, V190I
B14: AAV-binding protein No. 135 (AVR8g + Glu335Gly, Gln386Arg) (receptor)
chain: B1 chain with E26G
B15: AAV-binding protein No. 136 (AVR8g + Glu335Val, Thr343Ser) (receptor)
chain: B1 chain with E26V, T34S, R77Q
B16: AAV-binding protein No. 137 (AVR8g + Thr341Pro, Phe379Ser) (receptor)
chain: B1 chain with T32P, F70S, R77Q
B17: AAV-binding protein No. 138 (AVR8g + Gly361Cys, Gly(Ser)390Gly) (receptor)
chain: B1 chain with G52C, R77Q, S81G
notes: Gly(Ser)390Gly read as Ser390 of AVR8g back to the wild-type Gly, so Gly390Ser is not applied
B18: AAV-binding protein No. 139 (AVR8g + Leu369Gln, Pro374Leu) (receptor)
chain: B1 chain with L60Q, P65L, R77Q
B19: AAV-binding protein No. 140 (AVR8g + Leu372Pro, Val396Ala) (receptor)
chain: B1 chain with L63P, R77Q, V87A
B20: AAV-binding protein No. 141 (AVR8g + Leu376Pro, Gly(Ser)390Gly) (receptor)
chain: B1 chain with L67P, R77Q, S81G
notes: as for B17
B21: AAV-binding protein No. 142 (AVR8g + Glu378Gly, Arg403His) (receptor)
chain: B1 chain with E69G, R77Q, R94H
B22: AAV-binding protein No. 144 (AVR8g + Val383Ala, Gln415Arg) (receptor)
chain: B1 chain with V74A, R77Q, Q106R
B23: AAV-binding protein No. 145 (AVR8g + Trp346Cys, Arg353Cys, His389Arg) (receptor)
chain: B1 chain with W37C, R44C, R77Q, H80R
B24: AAV-binding protein No. 146 (AVR8g + Leu372Gln, Leu376Pro, Val394Asp) (receptor)
chain: B1 chain with L63Q, L67P, R77Q, V85D
B25: AAV-binding protein No. 147 (AVR8g + Phe379Cys, Gln432Leu, Ser488Leu) (receptor)
chain: B1 chain with F70C, R77Q, Q123L, S179L
B26: AAV-binding protein No. 148 (AVR8g + Glu384Val, Gln432Arg, Ile456Val) (receptor)
chain: B1 chain with E75V, R77Q, Q123R, I147V
B27: AAV-binding protein No. 149 (AVR8g + Val394Ile, Asn395Ser, Thr426Ala) (receptor)
chain: B1 chain with R77Q, V85I, N86S, T117A
B28: AAV-binding protein No. 150 (AVR8g + Val396Ala, Gln441Arg, Lys448Glu) (receptor)
chain: B1 chain with R77Q, V87A, Q132R, K139E
B29: AVR10 (AAV-binding protein No. 143; AVR8g + Val381Ala, Ile382Val) (receptor)
chain: B1 chain with V72A, I73V, R77Q

Target: T1, VLP2 (virus-like particles of AAV2) (AAV2, UniProt P03135 1-735; P03135 1-598; P03135 1-533)
T1 construct: Empty AAV2 capsid; background says about 60 protein molecules, VP1:VP2:VP3 = 1:1:10; Immobilised on the ELISA plate
T1 sequence (P03135 whole entry, chain 1 of 3): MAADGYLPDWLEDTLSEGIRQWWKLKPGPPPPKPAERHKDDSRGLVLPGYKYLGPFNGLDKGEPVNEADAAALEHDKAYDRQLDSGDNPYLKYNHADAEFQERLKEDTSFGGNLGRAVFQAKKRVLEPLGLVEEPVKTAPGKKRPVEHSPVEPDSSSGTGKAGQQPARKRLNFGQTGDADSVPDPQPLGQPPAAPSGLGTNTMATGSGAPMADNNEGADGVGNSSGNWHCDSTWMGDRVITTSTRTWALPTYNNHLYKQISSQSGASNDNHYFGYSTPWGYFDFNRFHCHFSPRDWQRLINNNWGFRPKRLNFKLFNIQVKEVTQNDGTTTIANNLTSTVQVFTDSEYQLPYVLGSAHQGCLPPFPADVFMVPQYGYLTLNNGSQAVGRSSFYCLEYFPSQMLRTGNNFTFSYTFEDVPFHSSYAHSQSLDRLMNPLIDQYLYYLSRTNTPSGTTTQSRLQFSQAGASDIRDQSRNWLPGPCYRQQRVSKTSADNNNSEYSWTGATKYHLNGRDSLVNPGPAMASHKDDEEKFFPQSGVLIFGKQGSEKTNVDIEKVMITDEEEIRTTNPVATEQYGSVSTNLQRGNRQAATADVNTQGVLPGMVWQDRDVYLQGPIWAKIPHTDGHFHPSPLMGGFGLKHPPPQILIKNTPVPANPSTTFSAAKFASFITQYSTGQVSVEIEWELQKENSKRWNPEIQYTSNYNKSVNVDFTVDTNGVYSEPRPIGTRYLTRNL
T1 sequence (P03135 139-735, tags left off, chain 2 of 3): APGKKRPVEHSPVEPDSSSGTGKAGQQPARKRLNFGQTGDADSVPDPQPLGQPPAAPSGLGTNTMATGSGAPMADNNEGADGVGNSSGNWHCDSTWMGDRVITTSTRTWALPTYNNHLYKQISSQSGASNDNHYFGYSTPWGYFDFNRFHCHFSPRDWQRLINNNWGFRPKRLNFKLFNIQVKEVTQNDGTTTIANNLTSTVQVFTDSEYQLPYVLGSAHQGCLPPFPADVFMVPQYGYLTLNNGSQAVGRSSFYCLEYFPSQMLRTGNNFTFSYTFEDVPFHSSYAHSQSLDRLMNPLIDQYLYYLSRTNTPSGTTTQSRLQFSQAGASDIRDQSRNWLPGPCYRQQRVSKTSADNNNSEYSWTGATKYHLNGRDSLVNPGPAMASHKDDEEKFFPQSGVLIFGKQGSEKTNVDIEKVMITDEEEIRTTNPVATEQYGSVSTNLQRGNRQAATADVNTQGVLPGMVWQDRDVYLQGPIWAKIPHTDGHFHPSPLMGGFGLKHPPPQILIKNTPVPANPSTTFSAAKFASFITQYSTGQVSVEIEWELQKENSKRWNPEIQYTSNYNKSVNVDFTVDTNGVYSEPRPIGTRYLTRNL
T1 sequence (P03135 203-735, chain 3 of 3): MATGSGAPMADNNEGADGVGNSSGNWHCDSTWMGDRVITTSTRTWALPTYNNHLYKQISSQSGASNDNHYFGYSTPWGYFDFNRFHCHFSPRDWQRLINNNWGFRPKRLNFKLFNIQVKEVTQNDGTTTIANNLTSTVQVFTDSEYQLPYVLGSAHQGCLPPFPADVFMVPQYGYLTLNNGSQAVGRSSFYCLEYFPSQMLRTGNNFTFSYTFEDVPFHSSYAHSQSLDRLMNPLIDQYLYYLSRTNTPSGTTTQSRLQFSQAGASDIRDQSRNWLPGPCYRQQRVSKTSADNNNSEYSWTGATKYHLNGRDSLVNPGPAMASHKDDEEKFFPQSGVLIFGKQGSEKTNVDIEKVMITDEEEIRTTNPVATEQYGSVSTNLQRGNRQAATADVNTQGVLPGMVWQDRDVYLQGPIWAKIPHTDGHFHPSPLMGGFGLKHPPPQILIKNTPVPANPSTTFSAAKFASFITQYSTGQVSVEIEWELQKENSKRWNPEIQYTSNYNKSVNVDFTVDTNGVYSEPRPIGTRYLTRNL
Experiment: ELISA on VLP2; binding after pH 10.0 41.2°C 15 min / untreated

| Binder | Residual activity [%] |
| --- | --- |
| B1 | 34.9% |
| B2 | 60.5% |
| B3 | 25.2% |
| B4 | 36.5% |
| B5 | 34.5% |
| B6 | 23.3% |
| B7 | 74.9% |
| B8 | 67.5% |
| B9 | 63.1% |
| B10 | 70.3% |
| B11 | 56.5% |
| B12 | 62.1% |
| B13 | 63.9% |
| B14 | 36.3% |
| B15 | 38.8% |
| B16 | 86.3% |
| B17 | 51.5% |
| B18 | 85.2% |
| B19 | 92.8% |
| B20 | 85% |
| B21 | 76.6% |
| B22 | 65.7% |
| B23 | 63.5% |
| B24 | 81.4% |
| B25 | 79.7% |
| B26 | 37.4% |
| B27 | 70.5% |
| B28 | 49.7% |
| B29 | 90.3% |
